Test results taken from article PMC5777261 (The Journal of Biological Chemistry, 2017).

How the values were obtained:
Assay in all cases: radioligand binding; HEK293 cells expressing ACKR3-YFP or mutants, pretreated 5 min at 37 °C with 100 μM phenylarsine oxide; 50 pM 125I-CXCL12 tracer in 50 mM HEPES pH 7.4, 5 mM MgCl2, 1 mM CaCl2, 0.2% BSA, with or without unlabeled CXCL12 or CXCL11, 30 min at 37 °C; bound label counted in a γ counter; IC50 taken as proxy for ligand affinity
ACKR3 N127D-YFP = ACKR3 N127D-YFP (UniProt P25106)
Sequence of ACKR3 N127D-YFP (P25106 whole entry N127D): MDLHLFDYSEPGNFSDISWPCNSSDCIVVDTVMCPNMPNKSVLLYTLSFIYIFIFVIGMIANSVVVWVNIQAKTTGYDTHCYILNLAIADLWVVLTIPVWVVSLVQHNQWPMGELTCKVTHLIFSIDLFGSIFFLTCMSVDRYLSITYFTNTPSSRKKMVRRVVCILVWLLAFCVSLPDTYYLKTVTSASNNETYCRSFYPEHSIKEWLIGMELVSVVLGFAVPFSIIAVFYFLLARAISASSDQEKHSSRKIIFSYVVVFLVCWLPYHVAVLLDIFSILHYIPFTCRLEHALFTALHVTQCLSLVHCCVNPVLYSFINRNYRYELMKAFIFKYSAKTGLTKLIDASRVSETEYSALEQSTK

ACKR3 Y315A-YFP = ACKR3 Y315A-YFP (UniProt P25106)
Sequence of ACKR3 Y315A-YFP (P25106 whole entry Y315A): as the sequence (P25106 whole entry N127D) above, with D127N, Y315A counted along it

ACKR3 R142A-YFP = ACKR3 R142A-YFP (UniProt P25106)
Sequence of ACKR3 R142A-YFP (P25106 whole entry R142A): as the sequence (P25106 whole entry N127D) above, with D127N, R142A counted along it

ACKR3 Y143A-YFP = ACKR3 Y143A-YFP (UniProt P25106)
Sequence of ACKR3 Y143A-YFP (P25106 whole entry Y143A, the tested form may be a part): as the sequence (P25106 whole entry N127D) above, with D127N, Y143A counted along it

[1] = molecular target: ACKR3-YFP (wildtype ACKR3 fused C-terminally to YFP) (UniProt P25106)
Sequence of ACKR3-YFP (wildtype ACKR3 fused C-terminally to YFP) (P25106 whole entry, the tested form may be a part): as the sequence (P25106 whole entry N127D) above, with D127N counted along it

ACKR3 D90N-YFP = ACKR3 D90N-YFP (UniProt P25106)
Sequence of ACKR3 D90N-YFP (P25106 whole entry D90N): as the sequence (P25106 whole entry N127D) above, with D90N, D127N counted along it

ACKR3 N127K-YFP = ACKR3 N127K-YFP (UniProt P25106)
Sequence of ACKR3 N127K-YFP (P25106 whole entry N127K): as the sequence (P25106 whole entry N127D) above, with D127K counted along it

ACKR3 D141N-YFP = ACKR3 D141N-YFP (UniProt P25106)
Sequence of ACKR3 D141N-YFP (P25106 whole entry D141N): as the sequence (P25106 whole entry N127D) above, with D127N, D141N counted along it

ACKR3 N127S-YFP = ACKR3 N127S-YFP (UniProt P25106)
Sequence of ACKR3 N127S-YFP (P25106 whole entry N127S): as the sequence (P25106 whole entry N127D) above, with D127S counted along it

Sequence of CXCL12 (unlabeled recombinant chemokine) (P48061 22-93): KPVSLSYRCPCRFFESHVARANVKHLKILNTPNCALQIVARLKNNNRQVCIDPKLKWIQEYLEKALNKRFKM
Sequence of ^125I-CXCL12 radiolabel tracer (P48061 22-93): as above

^125I-CXCL12 radiolabel tracer (from UniProt P48061 22-93) (ligand)
125I-CXCL12 tracer binding, % of ACKR3 (the pair that is blocked) (ACKR3 N127D-YFP): 70%
125I-CXCL12 tracer binding, % of ACKR3 (the pair that is blocked) (ACKR3 Y315A-YFP): 69%
125I-CXCL12 tracer binding, % of ACKR3 (the pair that is blocked) (ACKR3 R142A-YFP): 66%
125I-CXCL12 tracer binding, % of ACKR3 (the pair that is blocked) (ACKR3 Y143A-YFP): 93%
125I-CXCL12 tracer binding, % of ACKR3 (the pair that is blocked) [1]: 100%
125I-CXCL12 tracer binding, % of ACKR3 (the pair that is blocked) (ACKR3 D90N-YFP): 92%
125I-CXCL12 tracer binding, % of ACKR3 (the pair that is blocked) (ACKR3 N127K-YFP): 83%
125I-CXCL12 tracer binding, % of ACKR3 (the pair that is blocked) (ACKR3 D141N-YFP): 64%
125I-CXCL12 tracer binding, % of ACKR3 (the pair that is blocked) (ACKR3 N127S-YFP): 87%

CXCL12 (unlabeled recombinant chemokine) (from UniProt P48061 22-93) (ligand)
IC50 (ACKR3 N127D-YFP): 10.9 nM
Log IC50 (ACKR3 N127D-YFP): -8.2
IC50 (ACKR3 Y315A-YFP): 24.7 nM
Log IC50 (ACKR3 Y315A-YFP): -7.7
IC50 (ACKR3 R142A-YFP): 45.1 nM
Log IC50 (ACKR3 R142A-YFP): -7.4
IC50 (ACKR3 Y143A-YFP): 3 nM
Log IC50 (ACKR3 Y143A-YFP): -8.5
IC50 [1]: 5.9 nM
Log IC50 [1]: -8.2
IC50 (ACKR3 D90N-YFP): 12.1 nM
Log IC50 (ACKR3 D90N-YFP): -7.9
IC50 (ACKR3 N127K-YFP): 9.9 nM
Log IC50 (ACKR3 N127K-YFP): -8.1
Log IC50 (ACKR3 D141N-YFP): -9.1
IC50 (ACKR3 N127S-YFP): 1.7 nM
Log IC50 (ACKR3 N127S-YFP): -8.8
